Assay results from patent US20050074821A1 (Amgen, published 2005).

Key:
[1] = biological target: T1, recombinant human NGF 1-120 (human, UniProt P01138 122-241); assay: cell-based or functional assay
[2] = biological target: recombinant rat beta-NGF (R&D Systems) (rat, UniProt P25427 122-241); assay: cell-based or functional assay
[3] = biological target: T1, recombinant human NGF 1-120; assay: cell-based or functional assay; remark: listed apart in the source
[4] = biological target: T1, recombinant human NGF 1-120; assay: KinExA; 10 pM and 30 pM Ab 4D4 equilibrated with huNGF in solution for 8 h, free antibody captured on huNGF-coated beads, dual-curve one-site fit
[5] = biological target: T2, NGF Lys-C peptide K1 (37.6) SSSHPIFHRGEFSVCDSVSVWVGDK (human, Cysteine residues were reduced and carboxymethylated); assay: Lys-C digest of NGF incubated with antibody, Microcon 100 separation, reversed phase HPLC
T2 construct: Calculated mass 2821; observed mass 2828.2
T2 peptide: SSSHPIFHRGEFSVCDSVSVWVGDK

[6] = biological target: T3, NGF Lys-C peptide K2 (39.5) QAAWRFIRIDTACVCVLSRK (human, Cysteine residues were reduced and carboxymethylated); assay: as above
T3 construct: Calculated mass 2452; observed mass 2459.5
T3 peptide: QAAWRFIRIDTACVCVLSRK

[7] = biological target: T4, NGF subtilisin peptide S2 (28.3) EVMVL (35-39) (human); assay: subtilisin-digested NGF incubated with antibody, Microcon 10 separation, HPLC of bound and unbound fractions
T4 peptide: EVMVL

[8] = biological target: T5, NGF subtilisin peptide S1 (4.4) SRKAVRR (113-119) (human); assay: as above
T5 peptide: SRKAVRR

[9] = biological target: T6, synthetic hNGF peptide 33582-27-01 SSSHPIFHRGEFSVC (1-15) (human, conjugated through cysteine to a maleimide activated plate); assay: peptide ELISA, Ab binding signal; peptide #1, N-terminus, 1-15
T6 construct: also called Peptide # 1; peptide #1
T6 peptide: SSSHPIFHRGEFSVC

[10] = biological target: T7, synthetic hNGF peptide 33582-27-19 TMDGKQAAWRFIRIDC (91-105) (human, C-terminal cysteine tail, conjugated to a maleimide activated plate); assay: peptide ELISA, Ab binding signal; peptide #19, internal, 91-105
T7 construct: also called Peptide # 19; peptide #19
T7 peptide: TMDGKQAAWRFIRIDC

[11] = biological target: T8, synthetic hNGF peptide 33582-27-16 WNSYATTTHTFVKALC (76-90) (human, C-terminal cysteine tail, conjugated to a maleimide activated plate); assay: peptide ELISA, Ab binding signal; peptide #16, internal, 76-90
T8 construct: also called Peptide # 16; peptide #16
T8 peptide: WNSYATTTHTFVKALC

[12] = biological target: T9, synthetic hNGF peptide 33582-27-17 TTTHTFVKALTMDGKC (81-95) (human, C-terminal cysteine tail, conjugated to a maleimide activated plate); assay: peptide ELISA, Ab binding signal; peptide #17, L4, 81-95
T9 construct: also called Peptide # 17; peptide #17
T9 peptide: TTTHTFVKALTMDGKC

[13] = biological target: T10, synthetic hNGF peptide 33582-27-18 FVKALTMDGKQAAWRC (86-100) (human, C-terminal cysteine tail, conjugated to a maleimide activated plate); assay: ELISA, peptide conjugated to maleimide plate, 4D4.IgG1 at 0, 3, 10, 30 ug/ml, anti-hFc-HRP
T10 construct: also called Peptide # 18
T10 peptide: FVKALTMDGKQAAWRC

[14] = biological target: T1, recombinant human NGF 1-120; assay: cell-based or functional assay; remark: listed apart in the source
[15] = biological target: T11, synthetic hNGF peptide 33582-27-21 FIRIDTAAVAVLSRKC (101-115) (human, C-terminal cysteine tail, conjugated to a maleimide activated plate); assay: peptide ELISA, Ab binding signal; peptides # 20-21, C-terminus, 96-115
T11 construct: also called Peptide # 21
T11 peptide: FIRIDTAAVAVLSRKC

[16] = biological target: T12, synthetic hNGF peptide 33582-27-20 QAAWRFIRIDTAAVC (96-110) (human, conjugated through cysteine to a maleimide activated plate); assay: as above
T12 construct: also called Peptide # 20
T12 peptide: QAAWRFIRIDTAAVC

[17] = biological target: T13, synthetic hNGF peptide 33582-27-10 NSVFKQYFFETKARDC (46-60) (human, C-terminal cysteine tail, conjugated to a maleimide activated plate); assay: peptide ELISA, Ab binding signal; peptide #10, L2, 46-60
T13 construct: also called Peptide # 10; peptide #10
T13 peptide: NSVFKQYFFETKARDC

Sequence of recombinant rat beta-NGF (R&D Systems) (P25427 122-241 limits assumed): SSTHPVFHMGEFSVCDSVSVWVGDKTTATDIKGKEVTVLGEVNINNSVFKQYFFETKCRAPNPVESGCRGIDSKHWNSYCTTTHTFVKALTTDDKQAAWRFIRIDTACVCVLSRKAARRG

B1: anti-NGF antibody 14D10 (antibody, V domains shown)
VH: EVQLVESGGGLVQPGRSLRLSCTASGFTFEDYAMHWVRQAPGKGLEWVSGISWNRGIIGYADSVKGRFTVSRDNAKNSLYLQMNSLRAEDTALYYCAKEGYYGSGRPGYFYYVMDVWGQGTTVTVSS
VL: EIVLTQSPGTLSLSPGERATLSCRASQSVSSGFLAWFQQKPGQAPRLLIYGASSRATAIPDRFSGSGSGTDFTLTISRLEPEDFAVYYCQQYGSSPYTFGQGTKLEIK
**Q.** B1 was tested. Which IC50 @ hNGF (nM), DRG neuron NGF neutralization assay; clone 14D10 [1] did it give?
**A.** 0.392 nM

**Q.** What about the IC50 @ rNGF (nM), DRG neuron NGF neutralization assay; clone 14D10 [2] of the same binder?
**A.** > 13 nM

B2: anti-NGF antibody 14D11 (antibody, V domains shown)
VH: EVQLVQSGAEVKKPGESLKISCKGSGYNFTTYWIGWVRQMPGKGLEWMGIIYPGDSDTKYSPSFQGQVTISADKSISTAYLQWSSLKASDTAMYYCARNYYGSGTYYYYYGMNVWGQGTTVTVSS
VL: DIQMTQSPSSVSASVGDRVTITCRASQGISIWLAWYQHKPGKAPKLLIYAASSLQSGVPSRFSGSGSGTDFTLTISSLQPEDFATYYCQQANSFPWTFGQGTKVEIK
**Q.** For B2, which IC50 @ hNGF (nM), DRG neuron NGF neutralization assay; clone 14D11 [1] is on record?
**A.** 0.28 nM

**Q.** And the IC50 @ rNGF (nM), DRG neuron NGF neutralization assay; clone 14D11 [2]?
**A.** > 20 nM

B3: anti-NGF monoclonal antibody 4D4 (antibody, V domains shown)
VH: EVQLVESGGGLVQPGGSLRLSCAASGFTLRSYSMNWVRQAPGKGLEWVSYISRSSHTIFYADSVKGRFTISRDNAKNSLYLQMDSLRDEDTAMYYCARVYSSGWHVSDYFDYWGQGILVTVSS
VL: AIQLTQSPSSLSASVGDRVTITCRASQGISSALAWYQQKPGKAPKLLIYDASSLESGVPSRFSGSGSGTDFTLTISSLQPEDFATYYCQQFNSYPLTFGGGTKVEIK
notes: also called 4D4.D7; #124 (parent)
**Q.** B3 was tested. Which “IC50, inhibition of NGF-induced VR1 expression in rat DRG neurons; sample 119 (from 124)” value [3] did it give?
**A.** < 1.2 nM

**Q.** What about the “IC50, inhibition of NGF-induced VR1 expression in rat DRG neurons; sample 124 (parent)” value [3] of the same binder?
**A.** < 0.57 nM

**Q.** And the “IC50, inhibition of NGF-induced VR1 expression in rat DRG neurons; sample 125 (from 124)” value [3]?
**A.** < 0.3 nM

**Q.** And the “IC50, inhibition of NGF-induced VR1 expression in rat DRG neurons; sample 167 (from same sample as 124)” value [3]?
**A.** 0.5 nM

**Q.** What about the Kd [4] of the same binder?
**A.** ~4 pM

**Q.** Does B3 bind [5]?
**A.** binds

**Q.** Does B3 bind [6]?
**A.** binds

**Q.** Does B3 bind [7]?
**A.** binds

**Q.** Does B3 bind [8]?
**A.** binds

B4: 4D4.IgG1 (recombinant anti-NGF 4D4 antibody with IgG1 heavy chain constant region) (antibody, V domains shown)
VH: EVQLVESGGGLVQPGGSLRLSCAASGFTLRSYSMNWVRQAPGKGLEWVSYISRSSHTIFYADSVKGRFTISRDNAKNSLYLQMDSLRDEDTAMYYCARVYSSGWHVSDYFDYWGQGILVTVSS
VL: AIQLTQSPSSLSASVGDRVTITCRASQGISSALAWYQQKPGKAPKLLIYDASSLESGVPSRFSGSGSGTDFTLTISSLQPEDFATYYCQQFNSYPLTFGGGTKVEIKR
notes: also called 4D4.IgG1.S; human anti-hNGF Ab 4D4.IgG1
**Q.** Does B4 bind [9]?
**A.** binds

**Q.** Does B4 bind [10]?
**A.** binds

**Q.** Does B4 bind [11]?
**A.** binds

**Q.** Does B4 bind [12]?
**A.** binds

**Q.** Does B4 bind [13]?
**A.** binds

**Q.** What about the “IC50 @ hNGF (nM), DRG neuron based NGF neutralization bioassay; 4D4.IgG1.R” value [14] of the same binder?
**A.** 0.149 nM

**Q.** And the “IC50 @ hNGF (nM), DRG neuron based NGF neutralization bioassay; 4D4.IgG1.S” value [14]?
**A.** 0.159 nM

**Q.** What about the “IC50 @ rNGF (nM), DRG neuron based NGF neutralization bioassay; 4D4.IgG1.R” value [2] of the same binder?
**A.** > 34 nM

**Q.** What about the “IC50 @ rNGF (nM), DRG neuron based NGF neutralization bioassay; 4D4.IgG1.S” value [2] of the same binder?
**A.** > 45 nM

**Q.** Does B4 bind [15]?
**A.** binds

**Q.** Does B4 bind [16]?
**A.** binds

**Q.** Does B4 bind [17]?
**A.** binds
